Data: patent US20220401557A1 (Chugai, published 2022)
Where a chain is given by its changes, count along the chain named. Non-standard residues stand in square brackets, D forms with d. No end group written: not given here. pGlu = O=C1CC[C@@H](C(=O)O)N1

T1: synthetic peptide (epitope peptide) corresponding to the sequence from the N terminus to position 15 of CD3
T1 construct: also called XDGNEEMGGITQTPY
T1 peptide: [pGlu]DGNEEMGGITQTPY

B1: hCE115HAuPA04/GLS//GCH065 (bispecific antibody, human IgG1, kappa, N297A)
heavy 1: QDGNEEMGGGSGGGSGGGSLSGRSDNHGGGSQVQLVESGGGVVQPGRSLRLSCAASGFTFSNAWMHWVRQAPGKGLEWVAQIKAKSNNYATYYAESVKGRFTISRDDSKNSLYLQMNSLKTEDTAVYYCRYVHYGAYYGVDAWGQGTTVTVSSASTKGPSVFPLAPSSKSTSGGTAALGCLVKDYFPEPVTVSWNSGALTSGVHTFPAVLQSSGLYSLSSVVTVPSSSLGTQTYICNVNHKPSNTKVDKKVEPKSCDKTHTCPPCPAPELRGGPKVFLFPPKPKDTLMISRTPEVTCVVVDVSHEDPEVKFNWYVDGVEVHNAKTKPREEQYASTYRVVSVLTVLHQDWLNGKEYKCKVSNKALPAPIEKTISKAKGQPREPQVYTLPPSRKEMTKNQVSLTCLVKGFYPSDIAVEWESNGQPENNYKTTPPYLDSDGSFFLYSKLTVDKSRWQQGNVFSCSVMHEALHNHYTQKSLSLSP
light 1: DIVMTQSPLSLPVTPGEPASISCRSSQSLVHSNRNTYLHWYQQKPGQAPRLLIYKVSNRFSGVPDRFSGSGSGTDFTLKISRVEAEDVGVYYCGQGTQVPYTFGQGTKLEIKRTVAAPSVFIFPPSDEQLKSGTASVVCLLNNFYPREAKVQWKVDNALQSGNSQESVTEQDSKDSTYSLSSTLTLSKADYEKHKVYACEVTHQGLSSPVTKSFNRGEC
heavy 2: QVQLVQSGAEVKKPGASVTVSCKASGYTFTDYEMHWIRQPPGEGLEWIGAIDGPTPDTAYSEKFKGRVTLTADKSTSTAYMELSSLTSEDTAVYYCTRFYSYTYWGQGTLVTVSSASTKGPSVFPLAPSSKSTSGGTAALGCLVKDYFPEPVTVSWNSGALTSGVHTFPAVLQSSGLYSLSSVVTVPSSSLGTQTYICNVNHKPSNTKVDKKVEPKSCDKTHTCPPCPAPELRGGPKVFLFPPKPKDTLMISRTPEVTCVVVDVSHEDPEVKFNWYVDGVEVHNAKTKPREEQYASTYRVVSVLTVLHQDWLNGKEYKCKVSNKALPAPIEKTISKAKGQPREPQVYTLPPSREEMTKNQVSLTCLVKGFYPSDIAVEWESNGQPENNYKTTPPYLDSDGSFFLYSKLTVDKSRWQQGNVFSCSVMHEALHNHYTQESLSLSP
light 2: B1 light 1 with S28P
B2: hCE115HAuPA20/GLS//GCH065 (bispecific antibody, human IgG1, kappa, N297A)
heavy 1: QDGNEEMGGITQTPYKVSISLSGRSDNHGGGSQVQLVESGGGVVQPGRSLRLSCAASGFTFSNAWMHWVRQAPGKGLEWVAQIKAKSNNYATYYAESVKGRFTISRDDSKNSLYLQMNSLKTEDTAVYYCRYVHYGAYYGVDAWGQGTTVTVSSASTKGPSVFPLAPSSKSTSGGTAALGCLVKDYFPEPVTVSWNSGALTSGVHTFPAVLQSSGLYSLSSVVTVPSSSLGTQTYICNVNHKPSNTKVDKKVEPKSCDKTHTCPPCPAPELRGGPKVFLFPPKPKDTLMISRTPEVTCVVVDVSHEDPEVKFNWYVDGVEVHNAKTKPREEQYASTYRVVSVLTVLHQDWLNGKEYKCKVSNKALPAPIEKTISKAKGQPREPQVYTLPPSRKEMTKNQVSLTCLVKGFYPSDIAVEWESNGQPENNYKTTPPYLDSDGSFFLYSKLTVDKSRWQQGNVFSCSVMHEALHNHYTQKSLSLSP
light 1: B1 light 1
heavy 2: B1 heavy 2
light 2: B1 light 1 with S28P
B3: Anti-CD3 antibody Fab fragment (humanized anti-CD3 antibody) (Fab, V domains shown)
VH: QVQLVESGGGVVQPGRSLRLSCAASGFTFSNAWMHWVRQAPGKGLEWVAQIKAKSNNYATYYAESVKGRFTISRDDSKNSLYLQMNSLKTEDTAVYYCRYVHYGAYYGVDAWGQGTTVTVSS
VL: DIVMTQSPLSLPVTPGEPASISCRSSQSLVHSNRNTYLHWYQQKPGQAPRLLIYKVSNRFSGVPDRFSGSGSGTDFTLKISRVEAEDVGVYYCGQGTQVPYTFGQGTKLEIKR
notes: Fab made by papain cleavage of a One-arm antibody
B4: CE115VH-F760mnP17/GLS3000-k0 (Combination of rat anti-CD3 antibody and human anti-CD3 antibody) (antibody, human IgG1, kappa, N297A, V domains shown)
VH: EVQLVETGGSLVQPGKSLKLTCATSGFTFSNAWMHWVRQSPEKQLEWVAQIKAKSNNYATYYAESVKGRFTISRDDSKSNIYLQMNSLKEEDTAVYYCRYVHYGAYYGVDAWGQGTSVTVSS
VL: B3 VL
B5: CE115HA000-F760mnP17/GLS3000-k0 (Humanized anti-CD3 antibody) (antibody, human IgG1, kappa, N297A, V domains shown)
VH: B3 VH
VL: B3 VL
B6: AN121H-F760mnP17/GLS3000-k0 (AN121) (antibody, human IgG1, kappa, N297A, V domains shown)
VH: QVQLVESGGGLVQPGRSLRLSCAASGFTFSNAWMHWVRQAPGKGLEWVAQIKDKANGYNAYYAESVKGRFTISRDDSKNSIYLQMNSLKTEDTAVYYCRYVHYTTYAGFSYKFGVDAWGQGTTVTVSS
VL: B3 VL
B7: CE115VH-F760mnP17/rCE115VL-k0 (Rat anti-CD3 antibody) (antibody, human IgG1, kappa, N297A, V domains shown)
VH: B4 VH
VL: DVVMTQTPVSMSVSLGGQVSISCRSSQSLVHNNGNTYVSWYIQKPSQSPQLLIYKVSNRFSGISDRFSGSGSGTDFTLKISRVEPDDLGVYYCGQGTQDPYTFGAGTKLELKR

How the values were obtained:
[1] = biological target: CD3 on NFAT-RE-luc2-Jurkat cells (human, UniProt P07766 23-207); experiment: cell-based or functional assay
CD3 on NFAT-RE-luc2-Jurkat cells, sequence (P07766 23-207): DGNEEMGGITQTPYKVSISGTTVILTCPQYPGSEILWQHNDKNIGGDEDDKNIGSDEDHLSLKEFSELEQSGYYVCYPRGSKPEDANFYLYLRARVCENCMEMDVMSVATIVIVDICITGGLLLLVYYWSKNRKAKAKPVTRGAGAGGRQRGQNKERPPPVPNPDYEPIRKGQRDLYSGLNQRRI

[2] = biological target: T1, synthetic peptide (epitope peptide) …; experiment: X-ray crystal structure of the Fab with the epitope peptide
Method: Furthermore, a sample was prepared by adding, to the obtained anti-CD3 antibody Fab fragment, a synthetic peptide (epitope peptide) which corresponds to the sequence from the N terminus to position 15 of CD3 and shown in SEQ ID NO: 14 below: XDGNEEMGGITQTPY (X: L-pyroglutamic acid) (SEQ ID NO: 14) to become 2 mM. The vapor diffusion method was used to obtain crystals from the sample by allowing the sample to stand at 20° C. under reservoir conditions of 100 mM MES buffer at pH7.0, 0.91% PEG3350, and 1.0 M sodium citrate tribasic dihydrate. These crystals were subject to X-ray crystallography based on the above-mentioned crystal structure of the anti-CD3 antibody Fab fragment alone according to a method known to those skilled in the art to obtain the crystal structure of a complex of the anti-CD3 antibody Fab fragment and the epitope peptide from the diffraction intensity data at 25 to 3.5 angstrom resolution. Its crystallographic reliability factor R (R factor) and Free R value (R free) were 18.55% and 26.53%, respectively.

CD3εδ heterodimer = biological target: T2, CD3εδ heterodimer (Homo sapiens (Human), UniProt P07766 22-126; P04234 22-100); experiment: SPR, Biacore T200; antibody captured on Protein G (CM3 chip), CD3εδ heterodimer as analyte, single cycle kinetics, 37 C
T2 construct: also called CD3ε8
T2 sequence (P07766 other isoform, or with tags, fused parts or gaps mutant limits assumed, chain 1 of 2): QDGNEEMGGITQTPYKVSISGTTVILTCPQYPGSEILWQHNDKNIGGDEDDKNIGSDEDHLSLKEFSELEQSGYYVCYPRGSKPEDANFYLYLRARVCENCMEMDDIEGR
T2 sequence (P04234 other isoform, or with tags, fused parts or gaps mutant limits assumed, chain 2 of 2): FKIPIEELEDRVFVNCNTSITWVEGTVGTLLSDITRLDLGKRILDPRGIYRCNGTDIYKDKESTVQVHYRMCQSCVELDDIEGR
Method: The activity of binding to the CD3εδ heterodimer was measured for: the rat anti-CD3 antibody containing as the variable region the heavy chain variable region (SEQ ID NO: 10) and the light chain variable region (SEQ ID NO: 11) described in Reference Example 1; a combination of a human anti-CD3 antibody and a rat anti-CD3 antibody which contains as the variable region a heavy chain variable region (SEQ ID NO: 12) and a light chain variable region (SEQ ID NO: 13) where the light chain has been humanized by a method known to those skilled in the art; a humanized anti-CD3 antibody which contains as the variable region a heavy chain variable region (SEQ ID NO: 12) and a light chain variable region (SEQ ID NO: 13), which have been humanized by a method known to those skilled in the art; and AN121 which contains as the variable region a heavy chain variable region (SEQ ID NO: 43) and a light chain variable region (SEQ ID NO: 13). The heavy chain variable regions were fused with F760mnP17 (SEQ ID NO: 39) used as the constant region and the light chain variable regions were fused with the Kappa chain (SEQ ID NO: 36) used as the constant region, and the antibodies were expressed according to the method of Reference Example 2.
The activity of binding to the CD3εδ heterodimer was assessed using BiacoreT200. Specifically, Protein G was immobilized onto a CM3 chip by a method known to those skilled in the art, and antibodies to be evaluated were bound to the immobilized Protein G. Then, the CD3εδ heterodimer prepared at 4000, 1000, 250, 62.5, 15.6, and 3.9 nM was bound thereto, and the binding was evaluated using the single cycle kinetics mode. Measurements were taken under conditions of 20 mM ACES, 150 mM NaCl, and pH7.4 at 37° C.

increase rate due to the protease treatment (luciferase, uPA-treated / untreated), antibody 0.1 nM [1] [ratio] | increase rate due to the protease treatment (luciferase, uPA-treated / untreated), antibody 1 nM [1] [ratio] | binding result [2] | Kd (CD3εδ heterodimer) [nM] | koff (CD3εδ heterodimer) [s⁻¹] | kon (CD3εδ heterodimer) [M⁻¹ s⁻¹] | Binder
1.3 | 6.3 |  |  |  |  | B1
1.1 | 2.4 |  |  |  |  | B2
 |  | binds |  |  |  | B3
 |  |  | 262 | 0.0124 | 47300 | B4
 |  |  | 556 | 0.0288 | 51800 | B5
 |  |  | 9.68 | 0.000723 | 74700 | B6
 |  |  | 191 | 0.00771 | 40400 | B7
